Measured values as given in IntAct's records for PubMed 24843023.

B1: AP-1 complex subunit mu-1 (Mus musculus), P35585 (parent)
chain: MSASAVYVLDLKGKVLICRNYRGDVDMSEVEHFMPILMEKEEEGMLSPILAHGGVRFMWIKHNNLYLVATSKKNACVSLVFSFLYKVVQVFSEYFKELEEESIRDNFVIIYELLDELMDFGYPQTTDSKILQEYITQEGHKLETGAPRPPATVTNAVSWRSEGIKYRKNEVFLDVIEAVNLLVSANGNVLRSEIVGSIKMRVFLSGMPELRLGLNDKVLFDNTGRGKSKSVELEDVKFHQCVRLSRFENDRTISFIPPDGEFELMSYRLNTHVKPLIWIESVIEKHSHSRIEYMVKAKSQFKRRSTANNVEIHIPVPNDADSPKFKTTVGSVKWVPENSEIVWSVKSFPGGKEYLMRAHFGLPSVEAEDKEGKPPISVKFEIPYFTTSGIQVRYLKIIEKSGYQALPWVRYITQNGDYQLRTQ
B2: Bone marrow stromal antigen 2 (Homo sapiens), Q10589 (parent)
chain: MASTSYDYCRVPMEDGDKRCKLLLGIGILVLLIIVILGVPLIIFTIKANSEACRDGLRAVMECRNVTHLLQQELTEAQKGFQDVEAQAATCNHTVMALMASLDAEKAQGQKKVEELEGEITTLNHKLQDASAEVERLRRENQVLSVRIADKKYYPSSQDSSSAAAPQLLIVLLGLSALLQ
partner: B1 chain
B3: Protein Vpu (Human immunodeficiency virus type 1 group M subtype B (isolate SF162)), P19554 (parent)
chain: MQPLQILAIVALVVAAIIAIVVWTIVYIEYRKILRQRKIDRLIDRITERAEDSGNESEGDQEELSALVERGHLAPWDVDDL

Variants of: B1
Conditions: with bst2_human BST2, Q10589

Row | Variant | effect of a mutation on the interaction
1 | MSASAVYVLDLKGKVLICRNYRGDVDMSEVEHFMPILMEKEEEGMLSPILAHGGVRFMWIKHNNLYLVATSKKNACVSLVFSFLYKVVQVFSEYFKELEEESIRDNFVIIYELLDELMDFGYPQTTDSKILQEYITQEGHKLETGAPRPPATVTNAVSWRSEGIKYRKNEVFLAVIEAVNLLVSANGNVLRSEIVGSIKMRVFLSGMPELRLGLNDKVLFDNTGRGKSKSVELEDVKFHQCVRLSRFENDRTISFIPPDGEFELMSYRLNTHVKPLIWIESVIEKHSHSRIEYMVKAKSQFKRRSTANNVEIHIPVPNDADSPKFKTTVGSVKWVPENSEIVWSVKSFPGGKEYLMRAHFGLPSVEAEDKEGKPPISVKFEIPYFTTSGIQVRYLKIIEKSGYQALPWVRYITQNGDYQLRTQ [D174A] | disrupting interaction

Variants of: B1
Conditions: with tgon3_rat Ttgn1, P19814
Sequence of tgon3_rat Ttgn1, P19814 (P19814 whole entry): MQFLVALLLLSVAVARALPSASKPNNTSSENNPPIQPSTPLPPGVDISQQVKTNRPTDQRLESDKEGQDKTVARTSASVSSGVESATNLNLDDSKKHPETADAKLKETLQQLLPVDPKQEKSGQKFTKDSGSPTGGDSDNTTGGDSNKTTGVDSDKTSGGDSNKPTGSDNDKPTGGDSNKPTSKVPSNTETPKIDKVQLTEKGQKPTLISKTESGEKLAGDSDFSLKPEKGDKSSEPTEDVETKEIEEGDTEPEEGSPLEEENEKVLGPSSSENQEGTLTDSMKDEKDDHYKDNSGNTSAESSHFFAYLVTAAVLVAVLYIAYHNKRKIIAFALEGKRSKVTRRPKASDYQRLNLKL

Row | Variant | effect of a mutation on the interaction
2 | MSASAVYVLDLKGKVLICRNYRGDVDMSEVEHFMPILMEKEEEGMLSPILAHGGVRFMWIKHNNLYLVATSKKNACVSLVFSFLYKVVQVFSEYFKELEEESIRDNFVIIYELLDELMDFGYPQTTDSKILQEYITQEGHKLETGAPRPPATVTNAVSWRSEGIKYRKNEVFLAVIEAVNLLVSANGNVLRSEIVGSIKMRVFLSGMPELRLGLNDKVLFDNTGRGKSKSVELEDVKFHQCVRLSRFENDRTISFIPPDGEFELMSYRLNTHVKPLIWIESVIEKHSHSRIEYMVKAKSQFKRRSTANNVEIHIPVPNDADSPKFKTTVGSVKWVPENSEIVWSVKSFPGGKEYLMRAHFGLPSVEAEDKEGKPPISVKFEIPYFTTSGIQVRYLKIIEKSGYQALPWVRYITQNGDYQLRTQ [D174A] | disrupting interaction

Variants of: B2
Conditions: with ap1m1_mouse Ap1m1, P35585

Row | Variant | effect of a mutation on the interaction
3 | MASTSADACRVPMEDGDKRCKLLLGIGILVLLIIVILGVPLIIFTIKANSEACRDGLRAVMECRNVTHLLQQELTEAQKGFQDVEAQAATCNHTVMALMASLDAEKAQGQKKVEELEGEITTLNHKLQDASAEVERLRRENQVLSVRIADKKYYPSSQDSSSAAAPQLLIVLLGLSALLQ [Y6A;Y8A] | disrupting interaction
4 | MASTSADYCRVPMEDGDKRCKLLLGIGILVLLIIVILGVPLIIFTIKANSEACRDGLRAVMECRNVTHLLQQELTEAQKGFQDVEAQAATCNHTVMALMASLDAEKAQGQKKVEELEGEITTLNHKLQDASAEVERLRRENQVLSVRIADKKYYPSSQDSSSAAAPQLLIVLLGLSALLQ [Y6A] | disrupting interaction
5 | MASTSYDACRVPMEDGDKRCKLLLGIGILVLLIIVILGVPLIIFTIKANSEACRDGLRAVMECRNVTHLLQQELTEAQKGFQDVEAQAATCNHTVMALMASLDAEKAQGQKKVEELEGEITTLNHKLQDASAEVERLRRENQVLSVRIADKKYYPSSQDSSSAAAPQLLIVLLGLSALLQ [Y8A] | disrupting interaction
6 | MASTSYDYCRAPMEDGDKRCKLLLGIGILVLLIIVILGVPLIIFTIKANSEACRDGLRAVMECRNVTHLLQQELTEAQKGFQDVEAQAATCNHTVMALMASLDAEKAQGQKKVEELEGEITTLNHKLQDASAEVERLRRENQVLSVRIADKKYYPSSQDSSSAAAPQLLIVLLGLSALLQ [V11A] | disrupting interaction

Variants of: B3
Conditions: with fbw1a_human BTRC

Row | Variant | effect of a mutation on the interaction
7 | S53N;S57N | decreasing interaction
